This note sets out measurements from US20150259371A1, “METHODS AND COMPOUNDS FOR INHIBITING GLYCOSYLTRANSFERASES” (SIMON FRASER UNIVERSITY, priority 2010, published 2015).

Substrate in this data set: COc1ccc(O[C@H]2S[C@H](CO)[C@@H](O)[C@H](O)[C@H]2NC(C)=O)cc1
Description: OGA kinetics, Michaelis-Menten hydrolysis of pMP glycosides. Particulars: other: 37° C., pH 7.4. In kind it is biochemical, human. Here is the method:
OGA kinetics: Synthesis and characterization of para-methoxyphenyl-5SGlcNAc is described in Example II. Kinetics were performed at 37° C. in PBS, pH 7.4 in a total volume of […]. Substrate concentrations of 25 μM to 1.5 mM were used for pMP-GlcNAc and 25 to 800 μM for pMP-5SGlcNAc. OGA (which was over-expressed and purified as described in Ref. ^42) was used at a concentration of 1 μM for pMP-GlcNAc and 3.6 μM for pMP-5SGlcNAc. Rates were monitored at a wavelength of 296 nm over the course of 10-20 min. Data were fit to the Michaelis-Menten equation in GRAFIT^41 and the kcat and KM values determined.

B1: OGA (Homo sapiens) (protein)
chain: MVQKESQATLEERESELSSNPAASAGASLEPPAAPAPGEDNPAGAGGAAVAGAAGGARRFLCGVVEGFYGRPWVMEQRKELFRRLQKWELNTYLYAPKDDYKHRMFWREMYSVEEAEQLMTLISAAREYEIEFIYAISPGLDITFSNPKEVSTLKRKLDQVSQFGCRSFALLFDDIDHNMCAADKEVFSSFAHAQVSITNEIYQYLGEPETFLFCPTEYCGTFCYPNVSQSPYLRTVGEKLLPGIEVLWTGPKVVSKEIPVESIEEVSKIIKRAPVIWDNIHANDYDQKRLFLGPYKGRSTELIPRLKGVLTNPNCEFEANYVAIHTLATWYKSNMNGVRKDVVMTDSEDSTVSIQIKLENEGSDEDIETDVLYSPQMALKLALTEWLQEFGVPHQYSSRQVAHSGAKASVVDGTPLVAAPSLNATTVVTTVYQEPIMSQGAALSGEPTTLTKEEEKKQPDEEPMDMVVEKQEETDHKNDNQILSEIVEAKMAEELKPMDTDKESIAESKSPEMSMQEDCISDIAPMQTDEQTNKEQFVPGPNEKPLYTAEPVTLEDLQLLADLFYLPYEHGPKGAQMLREFQWLRANSSVVSVNCKGKDSEKIEEWRSRAAKFEEMCGLVMGMFTRLSNCANRTILYDMYSYVWDIKSIMSMVKSFVQWLGCRSHSSAQFLIGDQEPWAFRGGLAGEFQRLLPIDGANDLFFQPPPLTPTSKVYTIRPYFPKDEASVYKICREMYDDGVGLPFQSQPDLIGDKLVGGLLSLSLDYCFVLEDEDGICGYALGTVDVTPFIKKCKISWIPFMQEKYTKPNGDKELSEAEKIMLSFHEEQEVLPETFLANFPSLIKMDIHKKVTDPSVAKSMMACLLSSLKANGSRGAFCEVRPDDKRILEFYSKLGCFEIAKMEGFPKDVVILGRSL
notes: made in house
By Km is commonly meant the concentration of substrate that gives half-maximal velocity. Consider B1, for which the Km worked out at 35 µM.
